# According to paper PMC6270235, “A Macrocyclic Peptide that Serves as a Cocrystallization Ligand and Inhibits the Function of a MATE Family Transporter” (Molecules, 2013):
# Bridge positions count the residues as written; N and C are the ends.
# T1: Pyrococcus furiosus multidrug and toxic compound extrusion (PfMATE) transporter, wild type, His6-tagged, … (Pyrococcus furiosus, UniProt Q8U2X0 1-461)
# T1 construct: PfMATE, MATE family transporter of Pyrococcus furiosus, wild type; Held in HEPES-buffered saline with 0.1% Cymal-6; also called His-tagged PfMATE; source: prepared according to literature [29]; not shown: His6, C-terminal, kept
# T1 sequence (looked up): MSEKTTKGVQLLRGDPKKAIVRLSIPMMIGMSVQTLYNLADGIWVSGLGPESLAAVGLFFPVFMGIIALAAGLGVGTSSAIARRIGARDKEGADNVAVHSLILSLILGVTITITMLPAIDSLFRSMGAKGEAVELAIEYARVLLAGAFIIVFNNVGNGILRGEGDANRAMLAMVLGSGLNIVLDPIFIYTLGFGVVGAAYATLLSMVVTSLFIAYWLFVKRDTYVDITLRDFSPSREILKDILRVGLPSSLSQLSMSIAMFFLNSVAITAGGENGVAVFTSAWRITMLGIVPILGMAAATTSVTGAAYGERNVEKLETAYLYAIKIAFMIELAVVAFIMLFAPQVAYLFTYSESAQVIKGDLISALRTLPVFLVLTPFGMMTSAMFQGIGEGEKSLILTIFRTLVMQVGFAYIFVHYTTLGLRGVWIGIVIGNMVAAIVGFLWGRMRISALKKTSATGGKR
# Biological target: T1, Pyrococcus furiosus multidrug and toxic …
# Test: mRNA display selection round with competitor; c-Round 6: 32 µM mRNA-free synthetic MaL6 in the buffer of the binding step, 37 °C, His6-PfMATE on magnetic beads, libraries from Round 5; recovery by real-time PCR
# Conditions: both partners purified
binder,measurement,value
"{CH2CO}-FTFRYSPSLYTWFLFPCG-NH2 (thioether N-17 (inferred), AcF = N-chloroacetyl-L-phenylalanine; selected from the LF-library by RaPID; additional C-terminal glycine-carboxamide; also called chemically synthesized MaL6; mRNA-free MaL6; source: synthetic peptide, HPLC purified)",binding result,binds
